Data as given in the supplement of paper PMC9732359.
± gives the uncertainty stated by the source.

Assay: protein stability index of a GFP-peptide fusion (yeast GPS) (PSI 1-4); higher = more stable; sorted into four equal gates, so the index is relative within each strain
Settings: ubr1∆
Summary of the method: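 Plasmids isolated from each sorting gate were PCR-amplified and Illumina-sequenced, and barcodes assigned the reads to strains. The gates, four of equal size, were set by GFP/Cherry fluorescence ratio on mid-log cultures in leucine-free medium. These cultures were yeast carrying a pooled library of tiled 17-residue yeast protein peptides fused downstream of GFP on a plasmid that also expresses Cherry. The protein stability index is the sum of every gate's read frequency times its gate number.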

Sequence	protein stability index
MNNQPQGTNSVPNSIGN [SNF5]	2.92 ± 0.055
MPNIELYLKVIPMDFIR [SSN2]	2.54 ± 0.079
MPSRFTKTRKHRGHVSA [RPL28]	2.39 ± 0.062
MQKPVPFVPVLDRRFEI [FAS1]	1.92 ± 0.028
MQKQHEMKTQAAELQEK [SNF6]	2.54 ± 0.063
MQQAQFQAQQAQQAQQA [SNF2]	2.53 ± 0.032
MRDKSFGRTLASVTKEI [RPL12A]	2.81 ± 0.18
MRFNIEIIADWIWDMNV [BRR2]	2.39 ± 0.041
MSAPQAKILSQAPTELE [RPS7A]	2.53 ± 0.073
MSDSIISFAAFILADAG [RPP1B]	1.26 ± 0.057
MSDVEEVVEVQEETVVE [RPS12]	3.12 ± 0.12
MSGFSLSEYLTKFQTTD [YCS4]	2.9 ± 0.14
MSGILHCEDKDYKTAFS [RPN6]	3.16 ± 0.049
MSGSLSRGNGGKKVLNK [POP1]	2.97 ± 0.11
MSGTTKRLNGKRKYLDI [SSN2]	3.55 ± 0.12
MSLINDAMVTRTPVIIS [SMD2]	1.52 ± 0.085
MSNDPGNEVSSLYPPPP [MED7]	3.08 ± 0.062
MSNTLFDDIFQVSEVDP [RPB8]	3.08 ± 0.054
MSRSLANGIINVKEITE [SMC3]	2.87 ± 0.064
MSVDIDKKASMIISGSR [ASC1]	1.99 ± 0.074
MSVEPVVVIDGKGHLVG [RPL16A]	3.1 ± 0.089
MSVSDNDQALIKVLLRQ [RET1]	2.6 ± 0.053
MTAAVTSSNIVLETHES [RPT6]	2.48 ± 0.059
MTAQQAPKWYPSEDVAA [RPL6B]	1.71 ± 0.11
MTEDIEQKKTATEVTPQ [RPC19]	3.28 ± 0.11
MTLLTDSLRKLYVDSES [MTW1]	1.59 ± 0.077

Sequence	protein stability index
MTVTFLILAGQVKVKGQ [YCS4]	1.83 ± 0.057
MVAATKRRKTHIHKHVK [RET1]	3.09 ± 0.1
MVCETDVPSEDDPTQLV [RPO21]	2.56 ± 0.11
MVMREETIKSLEDPYKY [CSN9]	1.73 ± 0.054
MVSTPELKKYMDKKILL [SMX2]	3 ± 0.074
MYCRPAPSDFSENQRQI [GRR1]	2.66 ± 0.082
NAASQQPTPRSASNTAK [GAL11]	2.67 ± 0.039
NAEVVAGNIKCRNDAVN [BRR2]	2.86 ± 0.14
NAIFLSSEQDYSTLKEL [YCG1]	2.81 ± 0.094
NANTIETAKMIENMTKE [FAS2]	3.35 ± 0.095
NAPAWFKLSSESVIEQI [RPS13]	2.48 ± 0.067
NAPTFNPKYDTSNASMN [YAR002W/NUP60]	3.17 ± 0.046
NCNIKDFKPPYIYSHVN [SWP82]	2.91 ± 0.057
NDDFSEVFEFKTFNKIQ [BRR2]	2.64 ± 0.097
NDDIEWMLSICVEWRLP [YJR042W/NUP85]	1.9 ± 0.058
NDEVNEDEEDDNISSFH [YCG1]	3.33 ± 0.12
NDILDELLCGMANKEWR [ECM29]	1.6 ± 0.061
NDLDYDLIADTITNSSS [YML103C/NUP188]	3.02 ± 0.048
NDNYSSDMENDNLLLNL [REC8]	3.09 ± 0.12
NDRNPRLNENKKIGCYM [CSN12]	3.26 ± 0.065
NDSSATRSWRPPQAGDR [RPB8]	2.76 ± 0.26
NDTSSGTNAMLPSPESL [SNF5]	2.8 ± 0.042
NEESTNERLEINQEKPV [SIR4]	3.36 ± 0.1
NEFQLQWGKYQTFGVDI [SWI1]	3.26 ± 0.088
NEKIEKRSDLTGANSIY [UBP6]	3.15 ± 0.068
NEKSQAEQEKAKNIISN [LRP1]	2.62 ± 0.17

Sequence	protein stability index
NELERNRKIYQFTLYDR [SMC3]	2.88 ± 0.1
NELPDIEALYDDDTFSD [RPN2]	2.98 ± 0.081
NENDKIYLLFQSSGKLK [YDL116W/NUP84]	2.72 ± 0.034
NENDLKTYNCLHEKYLT [SMC1]	3.02 ± 0.056
NENPYNNGVSNLWKNIF [COR1]	1.86 ± 0.07
NEPLSEIEIEGVMSLLQ [YAR002W/NUP60]	3.19 ± 0.094
NEPSQSLISTRNDSTVN [BRN1]	2.82 ± 0.045
NESKIKELNEKIQKLEE [RPN7]	2.09 ± 0.14
NESWKSSFEKFNDSQAI [SRP72]	3.02 ± 0.037
NEVKEWAVTLDTSRPDL [DSN1]	3.15 ± 0.041
NEYVAKVSAREKSAYKF [FAS2]	3.32 ± 0.061
NFLVFQGDVEQIAAQSP [SMC1]	2.61 ± 0.094
NFNDIPPSVTLQDWQRE [YDL088C/ASM4]	3.09 ± 0.053
NFNLKPTKTLTTKERKK [PRP8]	2.12 ± 0.041
NFNSSAPIADDNHSGDA [DSN1]	2.68 ± 0.067
NFNSSLHKRQQFSESTH [YJL039C/NUP192]	3.03 ± 0.061
NFSNVTDLTNNSTDGAK [YIL149C/MLP2]	2.85 ± 0.034
NGKEVPLAKIYLEENKS [MED1]	3.21 ± 0.063
NGKTRTLENTLKAAFVA [RPS2]	2.67 ± 0.085
NGNITYSEEPREKVRKL [FAS2]	3.53 ± 0.18
NGQRSNSIRAREVENSV [SMC1]	3.19 ± 0.072
NGQSLSPVRSDSADVPA [YMR153W/NUP53]	2.91 ± 0.05
NGTTVWGTLQSVSPQMN [SMD1]	2.96 ± 0.18
NGVPGQALDAVRMRLAQ [MED8]	1.26 ± 0.047
NHITEFPSIPLPINGPI [RPC31]	1.94 ± 0.051
NIDINNEDENIQLIKIL [YJL041W/NSP1]	2.7 ± 0.042

Sequence	protein stability index
NIDQEGSKQADRMAKYL [PGD1]	3.17 ± 0.15
NIEERKEKIQHELGINI [BRR2]	3.22 ± 0.1
NIIASPLSAGFNYGKLP [SIN4]	2.54 ± 0.076
NINSTDKSIDTSSLQLY [YML103C/NUP188]	3.25 ± 0.07
NIPFWKHVGFELLSMGN [SRP72]	1.27 ± 0.079
NIPQQQQMQPPNSSANN [GAL11]	2.75 ± 0.041
NIRNNIESQNLDLIPHS [SRB4]	2.7 ± 0.029
NITFSEELVSLAVFLFD [YJL039C/NUP192]	1.66 ± 0.29
NITKNLKTFNGSLALLK [POP4]	3.13 ± 0.1
NIVQVFKKAAPSPISHV [RPB2]	2.09 ± 0.043
NKEKSNSPTSFFDGSAS [YOR098C/NUP1]	2.95 ± 0.081
NKFHKSIREDILECDLL [SIR2]	3.08 ± 0.06
NKFMSIFLKRKDFTNKN [SRB8]	2.58 ± 0.065
NKIMTNQINSFWSLHSS [NUT1]	3.31 ± 0.1
NKKGRGHVKPVRCVNCS [RPS26A]	3.02 ± 0.076
NKQYELFMKSLIENCKK [SWI1]	2.66 ± 0.036
NKQYHQANSNLTLLERK [NUT1]	2.83 ± 0.066
NKRWKVDIGGKQHAVLM [RRP4]	3.2 ± 0.037
NKTSNNNNVTAVPAATP [SWI1]	3.07 ± 0.042
NLAIVELVRLLIIDEIH [BRR2]	2.36 ± 0.062
NLAPKLRNVFLGKCSRI [GRR1]	2.29 ± 0.049
NLDSSITQDGKFAYKID [YMR129W/POM152]	2.71 ± 0.05
NLEPLIAKLVAVLNVSP [NUT1]	1.43 ± 0.057
NLERLRSDLQSKIQEIE [YIL149C/MLP2]	3.33 ± 0.1
NLFSSTGFKGLLIELQA [SRB2]	2.94 ± 0.042
NLGEYESAVKYALAAKD [RPN2]	2.8 ± 0.054
